The text below walks through data of publication PMC2786168.

Positions count from the first letter of the chain named.

One series deals with T1, RNase R wild-type (Escherichia coli, UniProt P21499 1-813).
T1 sequence: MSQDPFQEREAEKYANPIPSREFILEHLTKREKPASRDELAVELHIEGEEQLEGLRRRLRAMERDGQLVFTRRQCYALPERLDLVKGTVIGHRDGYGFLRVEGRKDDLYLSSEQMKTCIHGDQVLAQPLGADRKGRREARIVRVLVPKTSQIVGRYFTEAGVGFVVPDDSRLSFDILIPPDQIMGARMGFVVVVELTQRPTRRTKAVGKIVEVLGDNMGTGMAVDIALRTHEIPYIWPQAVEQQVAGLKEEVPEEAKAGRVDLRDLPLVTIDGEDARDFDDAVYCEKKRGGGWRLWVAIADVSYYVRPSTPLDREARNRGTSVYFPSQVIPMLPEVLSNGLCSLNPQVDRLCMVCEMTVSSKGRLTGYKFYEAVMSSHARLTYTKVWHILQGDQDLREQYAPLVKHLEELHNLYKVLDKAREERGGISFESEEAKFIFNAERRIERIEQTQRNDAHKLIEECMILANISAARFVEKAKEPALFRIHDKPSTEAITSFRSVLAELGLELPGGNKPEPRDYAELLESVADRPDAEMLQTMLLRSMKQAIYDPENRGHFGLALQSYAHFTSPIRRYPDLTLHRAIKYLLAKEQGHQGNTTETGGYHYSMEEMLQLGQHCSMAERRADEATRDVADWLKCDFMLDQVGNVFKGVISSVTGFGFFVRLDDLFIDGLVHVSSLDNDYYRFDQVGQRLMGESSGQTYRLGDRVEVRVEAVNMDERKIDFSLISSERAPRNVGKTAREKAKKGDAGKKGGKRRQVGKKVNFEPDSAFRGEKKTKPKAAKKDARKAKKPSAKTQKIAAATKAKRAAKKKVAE
In words: filter binding.

The target of another series is T2, RNase R R572K (Escherichia coli, UniProt P21499 1-813, R572K).
T2 sequence: T1 sequence with R572K
As to the kind of experiment: filter binding.

The Kd is the constant that tells how readily two partners part at equilibrium. Higher therefore signals weaker binding. AAAAAAAAAAAAAAAAA (ssRNA) [A17]: the results for the Kd with RNase R wild-type and in the series with RNase R R572K were 0.8 ± 0.1 nM and 0.5 ± 0.1 nM, respectively.
